Target: T1, endogenous PCNA (proliferating cell nuclear antigen) in HeLa cells (human (endogenous in HeLa cells), UniProt P12004 1-261)
T1 construct: whole, on cells; Intracellular (nuclear) endogenous protein in living or fixed HeLa cells, not on the surface
Test: GFP fusion expressed in HeLa cells, epifluorescence microscopy
Experimental: First, it was investigated, whether transiently expressed PCNA3p16-GFP colocalizes with RFP-PCNA or HcRedLigase, another S phase marker. To do so, HeLa cells were seeded on coverslips and transiently double transfected with expression vectors coding for RFP-PCNA or HcRed-Ligase and vector coding for PCNA-Chromobody PCNA3p16-GFP. 24 h after transfection cells were fixed in 4% PFA for 15 minutes at room temperature, permeabilized with 0,2% Triton-X-100 in PBS and the DNA was counterstained with DAPI. Slides were mounted in VectaShield and further analyzed by epifluorescence microscopy with appropriate filtersets for DAPI (D360_{—}40X/HQ460_{—}40M), GFP (HQ480_{—}40X/HQ535_{—}50M) and red fluorescent proteins (HQ565_{—}30X/HQ620_{—}60M) and an 63X/1.3 NA Plan Apo oil objective. As expected, RFP-PCNA as well as HcRed-Ligase localized to DNA replication sites in the nucleus of the cells. In both cases a colocalization of RFP-PCNA and HcRed-Ligase with the Chromobody PCNA3p16-GFP was detected (FIG. 3 A). […]
To confirm that PCNA3p16-GFP recognizes endogenous PCNA located at active DNA replication sites, an antibody staining against PCNA and a BrdU pulse-chase experiment were performed. […] The primary anti-PCNA antibody (clone 16D10) (1:400) was detected by a secondary antibody coupled to the fluorescent dye Alexa568. […]

T1 sequence (P12004 whole entry): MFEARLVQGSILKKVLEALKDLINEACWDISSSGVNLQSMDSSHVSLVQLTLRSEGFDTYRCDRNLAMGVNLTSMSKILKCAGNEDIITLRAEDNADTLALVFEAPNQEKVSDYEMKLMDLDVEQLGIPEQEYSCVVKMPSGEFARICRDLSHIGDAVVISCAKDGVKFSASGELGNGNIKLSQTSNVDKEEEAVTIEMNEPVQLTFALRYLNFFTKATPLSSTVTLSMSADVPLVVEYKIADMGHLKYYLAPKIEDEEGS

B1: variant PCNA-Chromobody of SEQ ID NO 18 fused to GFP (VHH)
VHH: NVQLNESGGGLVQPGGSLRLSCAASGFTFSSYAMSWVRQAPGKGLEWVSEISPSGAVKAYSDSVKGRFTISRDNAKNRLYLQMNSLTPEDTGEYFCTKVQSPRTRIPAPSSQGTQVTVSS
notes: Expressed in HeLa cells as a GFP fusion; not shown: linker and GFP
Q: Does B1 bind?
A: binds
